Experiment [1] addresses T1, cynomolgus monkey FcγRIIIaS extracellular domain, C-terminal His-tag (cynomolgus monkey, UniProt A3RFZ7 21-206 (rhesus entry)).
T1 construct: also called cyno FcγRIIIaS; cynoFcγRIIIaS; not shown: His-tag added to C-terminus
Description: SPR (BIACORE); KD of parent SG1 / KD of variant.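 Also: relative to parent M103205H795-SG1 carrying the SG1 human heavy chain constant region.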 A general note: SPR reads the build-up and loss of mass on a sensor chip optically.

For experiment [2], the target named is T2, human FcγRIIaH extracellular domain, C-terminal His-tag (human, UniProt P12318 34-217).
T2 construct: also called human FcγRIIa (type H); FcgRIIaH; not shown: His-tag added to C-terminus
T2 sequence: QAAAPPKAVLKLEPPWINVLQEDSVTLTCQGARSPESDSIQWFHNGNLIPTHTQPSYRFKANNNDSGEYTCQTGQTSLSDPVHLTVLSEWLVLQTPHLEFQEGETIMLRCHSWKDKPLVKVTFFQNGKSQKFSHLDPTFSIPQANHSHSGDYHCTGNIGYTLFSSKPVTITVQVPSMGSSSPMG
Description: SPR (BIACORE); KD of parent SG1 / KD of variant.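 Also: relative to parent M103205H795-SG1 carrying the SG1 human heavy chain constant region.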

Experiment [3] concerns the target T3, cynomolgus monkey FcγRIIa2 extracellular domain, C-terminal His-tag (cynomolgus monkey).
T3 construct: also called cyno FcγRIIa2; cynoFcgRIIa2; not shown: His-tag added to C-terminus
T3 chain: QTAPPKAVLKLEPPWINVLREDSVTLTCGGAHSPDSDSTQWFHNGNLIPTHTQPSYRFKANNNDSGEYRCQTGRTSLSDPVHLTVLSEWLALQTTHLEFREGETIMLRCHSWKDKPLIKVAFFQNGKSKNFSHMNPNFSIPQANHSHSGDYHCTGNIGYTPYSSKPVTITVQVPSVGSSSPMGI
In words: SPR (BIACORE); KD of parent SG1 / KD of variant.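 Also: relative to parent M103205H795-SG1 carrying the SG1 human heavy chain constant region.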

Experiment [4] addresses T4, human FcγRIIb extracellular domain, C-terminal His-tag (human, UniProt P31994 43-217).
T4 construct: also called humanFcgRIIb; not shown: His-tag added to C-terminus
T4 sequence: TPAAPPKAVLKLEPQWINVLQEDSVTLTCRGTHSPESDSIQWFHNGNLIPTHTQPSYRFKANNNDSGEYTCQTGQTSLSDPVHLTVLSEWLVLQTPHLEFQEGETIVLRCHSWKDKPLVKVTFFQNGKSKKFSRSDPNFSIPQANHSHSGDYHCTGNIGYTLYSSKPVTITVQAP
In words: SPR (BIACORE); KD of parent SG1 / KD of variant.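 Also: relative to parent M103205H795-SG1 carrying the SG1 human heavy chain constant region.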

In experiment [5] the target is T5, cynomolgus monkey FcγRIIa1 extracellular domain, C-terminal His-tag (cynomolgus monkey).
T5 construct: also called cyno FcγRIIa1; cynoFcgRIIa1; not shown: His-tag added to C-terminus
T5 chain: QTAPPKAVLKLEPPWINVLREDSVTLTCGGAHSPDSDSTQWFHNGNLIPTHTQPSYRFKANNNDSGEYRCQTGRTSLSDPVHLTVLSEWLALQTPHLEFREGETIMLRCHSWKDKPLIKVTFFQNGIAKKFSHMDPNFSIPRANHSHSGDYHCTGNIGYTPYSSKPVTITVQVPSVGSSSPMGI
In words: SPR (BIACORE); KD of parent SG1 / KD of variant.

The target of experiment [6] is T6, human FcγRIIIaV extracellular domain, C-terminal His-tag (human, UniProt P08637 17-208).
T6 construct: also called FcgRIIIaV; not shown: His-tag added to C-terminus
Description: SPR (BIACORE); KD of parent SG1 / KD of variant.

The target in experiment [7] is T7, cynomolgus monkey FcγRIIb extracellular domain, C-terminal His-tag (cynomolgus monkey).
T7 construct: also called cyno FcγRIIb; cynoFcγRIIb; not shown: His-tag added to C-terminus
T7 chain: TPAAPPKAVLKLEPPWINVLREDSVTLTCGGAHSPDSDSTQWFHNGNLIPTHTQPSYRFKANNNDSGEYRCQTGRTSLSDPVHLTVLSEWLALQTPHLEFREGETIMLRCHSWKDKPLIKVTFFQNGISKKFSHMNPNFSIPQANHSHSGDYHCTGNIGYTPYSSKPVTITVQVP
In words: SPR (BIACORE); KD of parent SG1 / KD of variant.

Experiment [8] addresses T8, human FcγRIIaR extracellular domain, C-terminal His-tag (human, UniProt P12318 34-217).
T8 construct: also called human FcγRIIa (type R); FcgRIIaR; not shown: His-tag added to C-terminus
T8 chain: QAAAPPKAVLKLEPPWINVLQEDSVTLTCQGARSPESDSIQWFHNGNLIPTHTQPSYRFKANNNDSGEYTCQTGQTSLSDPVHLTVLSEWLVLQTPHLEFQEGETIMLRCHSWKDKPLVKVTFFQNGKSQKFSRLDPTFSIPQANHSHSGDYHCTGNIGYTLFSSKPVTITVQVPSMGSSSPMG
In words: SPR (BIACORE); KD of parent SG1 / KD of variant.

In experiment [9] the target is T9, cynomolgus monkey FcγRIIa3 extracellular domain, C-terminal His-tag (cynomolgus monkey).
T9 construct: also called cyno FcγRIIa3; cynoFcgRIIa3; not shown: His-tag added to C-terminus
T9 chain: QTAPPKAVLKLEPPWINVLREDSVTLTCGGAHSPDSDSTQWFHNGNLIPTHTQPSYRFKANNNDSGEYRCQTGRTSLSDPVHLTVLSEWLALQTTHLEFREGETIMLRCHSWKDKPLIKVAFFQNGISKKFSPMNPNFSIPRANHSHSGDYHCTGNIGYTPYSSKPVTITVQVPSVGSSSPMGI
In words: SPR (BIACORE); KD of parent SG1 / KD of variant.

In experiment [10] the target is T1, cynomolgus monkey FcγRIIIaS …. In words: SPR (BIACORE), antibody captured, FcγR analyte.
In experiment [11] the target is T2, human FcγRIIaH extracellular domain, …. In words: SPR (BIACORE), antibody captured, FcγR analyte.
In experiment [12] the target is T3, cynomolgus monkey FcγRIIa2 …. Description: SPR (BIACORE), antibody captured, FcγR analyte.
In experiment [13] the target is T4, human FcγRIIb extracellular domain, …. In words: SPR (BIACORE), antibody captured, FcγR analyte.
Experiment [14] concerns the target T5, cynomolgus monkey FcγRIIa1 …. Description: SPR (BIACORE), antibody captured, FcγR analyte.
In experiment [15] the target is T6, human FcγRIIIaV extracellular domain, …. Description: SPR (BIACORE), antibody captured, FcγR analyte.
Experiment [16] concerns the target T7, cynomolgus monkey FcγRIIb extracellular …. Description: SPR (BIACORE), antibody captured, FcγR analyte.
Experiment [17] has as its target T8, human FcγRIIaR extracellular domain, …. In words: SPR (BIACORE), antibody captured, FcγR analyte.
The target of experiment [18] is T9, cynomolgus monkey FcγRIIa3 …. In words: SPR (BIACORE), antibody captured, FcγR analyte.

T6 sequence (P08637 17-208 F176V): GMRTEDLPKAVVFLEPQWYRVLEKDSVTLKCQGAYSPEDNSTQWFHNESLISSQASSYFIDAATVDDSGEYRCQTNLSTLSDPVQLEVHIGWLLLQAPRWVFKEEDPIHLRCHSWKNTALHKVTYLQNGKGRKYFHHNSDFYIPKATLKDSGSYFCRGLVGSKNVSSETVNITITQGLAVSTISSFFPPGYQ
T1 sequence (A3RFZ7 21-206): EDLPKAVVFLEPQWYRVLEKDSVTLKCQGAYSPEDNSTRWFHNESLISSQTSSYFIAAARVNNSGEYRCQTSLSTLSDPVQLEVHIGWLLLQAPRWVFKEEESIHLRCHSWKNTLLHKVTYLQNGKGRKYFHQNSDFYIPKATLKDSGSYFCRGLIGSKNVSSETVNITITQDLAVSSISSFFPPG

B1: M103240H795-SG1074 / M103202L1045-SK1 (antibody)
heavy: QVQLVESGGGLVQPGGSLRLSCAVSGIDLSHDDISWVRQAPGKGLEWVSIISYAGSTYYASWAKGRLTISKDTSKNQVVLTMTNMDPVDTATYYCARGVPAYSHGGDLWGQGTLVTVSSASTKGPSVFPLAPSSKSTSGGTAALGCLVKDYFPEPVTVSWNSGALTSGVHTFPAVLQSSGLYSLSSVVTVPSSSLGTQTYICNVNHKPSNTKVDKKVEPKSCDKTHTCPPCPAPELLNGPSVFLFPPKPKDTLMISRTPEVTCVVVDVSDEDPEVKFNWYVDGVEVHNAKTKPREELYNSTYRVVSVLTVLHRDWLNGKEYKCKVSNTALPKPIEKTISKAKGQRREPQVYTLPPSREEMTKNQVSLTCLVKGFYPSDIAVEWESNGQPENNYKTTPPVLDSDGSFFLYSKLTVDKSRWQQGNVFSCSVLHEALHAHTTRKELSLSP
light: DIVMTQSPATLSLSPGERATLSCTTSQSVYHENWLSWFQQKPGQPPKLLIYWASTLAYGVPSRFSGSGSGTDFTLTISSLQPEDAATYYCAGGYGGGRYAFGQGTKVEIKRTVAAPSVFIFPPSDEQLKSGTASVVCLLNNFYPREAKVQWKVDNALQSGNSQESVTEQDSKDSTYSLSSTLTLSKADYEKHKVYACEVTHQGLSSPVTKSFNRGEC
notes: CH with G236N/H268D/Q295L/Q311R/K326T/A330K/P343R/M428L/N434A/Y436T/Q438R/S440E against SG1 (EU numbering); also called MS1032LO19-SG1074
With B1, the “KD fold (SG1 = 1)” value in experiment [1] is 0.19 fold; in experiment [2], 2.2 fold; in [3], 6.1 fold; in experiment [4], 10.2 fold; in experiment [5] it was 5.4 fold; in experiment [6], 0.18 fold. Besides, the “KD fold (SG1 = 1)” value in [7] was 11.1 fold; in experiment [8], 1.8 fold; in experiment [9], 6.2 fold. The equilibrium dissociation constant (Kd) (as a rule, the constant that tells how readily two partners part at equilibrium) came to 1400 nM in [10]; 450 nM in experiment [11]; 680 nM in [12]; 380 nM in [13]; 700 nM in experiment [14]; 4.5 µM in experiment [15]. The Kd in [16] turned out to be 160 nM; in experiment [17], 540 nM; in experiment [18], 1100 nM.

B2: M103240H795-SG1079 / M103202L1045-SK1 (antibody)
heavy: QVQLVESGGGLVQPGGSLRLSCAVSGIDLSHDDISWVRQAPGKGLEWVSIISYAGSTYYASWAKGRLTISKDTSKNQVVLTMTNMDPVDTATYYCARGVPAYSHGGDLWGQGTLVTVSSASTKGPSVFPLAPSSKSTSGGTAALGCLVKDYFPEPVTVSWNSGALTSGVHTFPAVLQSSGLYSLSSVVTVPSSSLGTQTYICNVNHKPSNTKVDKKVEPKSCDKTHTCPPCPAPELLNGPSVFLFPPKPKDTLMISRTPEVTCVVVDVSDEDPEVKFNWYVDGVEVHNAKTKPREELYNSTYRVVSVLTVLHRDWLNGKEYKCKVSNKALPKPIEKTISKAKGQPREPQVYTLPPSREEMTKNQVSLTCLVKGFYPSDIAVEWESNGQPENNYKTTPPVLDSDGSFFLYSKLTVKKSRWQQGNVFSCSVMHEALHAHYTRKELSLSP
light: DIVMTQSPATLSLSPGERATLSCTTSQSVYHENWLSWFQQKPGQPPKLLIYWASTLAYGVPSRFSGSGSGTDFTLTISSLQPEDAATYYCAGGYGGGRYAFGQGTKVEIKRTVAAPSVFIFPPSDEQLKSGTASVVCLLNNFYPREAKVQWKVDNALQSGNSQESVTEQDSKDSTYSLSSTLTLSKADYEKHKVYACEVTHQGLSSPVTKSFNRGEC
notes: CH with G236N/H268D/Q295L/Q311R/A330K/D413K/N434A/Q438R/S440E against SG1 (EU numbering); also called MS1032LO19-SG1079
On to B2, for which the “KD fold (SG1 = 1)” value came out at 0.08 fold in experiment [1]; 1.4 fold in experiment [2]; 3.4 fold in [3]; 5.6 fold in experiment [4]; 3.4 fold in experiment [5]; 0.18 fold in experiment [6]. Further, the “KD fold (SG1 = 1)” value stood at 5.7 fold in experiment [7], 0.8 fold in experiment [8] and 3.2 fold in [9]. The Kd was 3300 nM in experiment [10]; 670 nM in experiment [11]; 1200 nM in experiment [12]; 690 nM in [13]; 1100 nM in experiment [14]; 5.2 µM in [15]. The equilibrium dissociation constant (Kd) was found to be 300 nM in experiment [16], 1200 nM in experiment [17] and 2100 nM in experiment [18].

The values are drawn from patent US20200317768A1 (published 2020).
